From patent publication US20220089698A1 (published 2022)

How the values were obtained:
HIV gp120 Bal = HIV gp120 Bal (HIV); assay: single-point ELISA; note: test concentration or dose not given here
HIV gp120 CAAN = HIV gp120 CAAN (HIV); assay: single-point ELISA; note: test concentration or dose not given here

Binder	ELISA (A450) (HIV gp120 Bal)	ELISA (A450) (HIV gp120 CAAN)
1.15.1-1 (antibody, human IgG1, kappa) heavy: QVQLLQSGAAVTKPGASVRVSCEASGYNIRDYFIHWWRQAPGQGLQWVGWINPKWGQPNNPRQFQGRVSLTRHASWDFDTFSFYMDLKALRSDDTAVYFCARQRSDYWDFDVWGSGTQVTVSSASTKGPSVFPLAPSSKSTSGGTAALGCLVKDYFPEPVTVSWNSGALTSGVHTFPAVLQSSGLYSLSSVVTVPSSSLGTQTYICNVNHKPSNTKVDKKVEPKSCDKTHTCPPCPAPELLAGPDVFLFPPKPKDTLMISRTPEVTCVVVDVSHEDPEVKFNWYVDGVEVHNAKTKPREEQYNSTYRVVSVLTVLHQDWLNGKEYKCKVSNKALPLPEEKTISKAKGQPREPQVYTLPPSREEMTKNQVSLTCLVKGFYPSDIAVEWESNGQPENNYKTTPPVLDSDGSFFLYSKLTVDKSRWQQGNVFSCSVLHEALHSHYTQKSLSLSPGK light: DIQMTQSPSSLSASVGDTVTITCQANGYLNWYQQRRGKAPKLLIYDGSKLERGVPSRFSGRRWGQEYNLTINNLQPEDIATYFCQVYEFVVPGTRLDLKRTVAAPSVFIFPPSDEQLKSGTASVVCLLNNFYPREAKVQWKVDNALQSGNSQESVTEQDSKDSTYSLSSTLTLSKADYEKHKVYACEVTHQGLSSPVTKSFNRGEC	0.87 A450	1.38 A450
1.16.1-1 (antibody, human IgG1, kappa) heavy: QVQLLQSGAAVTKPGASVRVSCEASGYNIRDYFIHWWRQAPGQGLQWVGWINPKGGQPNNPRQFQGRVSLTRHASWDFDTFSFYMDLKALRSDDTAVYFCARQRSDYWDFDVWGSGTQVTVSSASTKGPSVFPLAPSSKSTSGGTAALGCLVKDYFPEPVTVSWNSGALTSGVHTFPAVLQSSGLYSLSSVVTVPSSSLGTQTYICNVNHKPSNTKVDKKVEPKSCDKTHTCPPCPAPELLAGPDVFLFPPKPKDTLMISRTPEVTCVVVDVSHEDPEVKFNWYVDGVEVHNAKTKPREEQYNSTYRVVSVLTVLHQDWLNGKEYKCKVSNKALPLPEEKTISKAKGQPREPQVYTLPPSREEMTKNQVSLTCLVKGFYPSDIAVEWESNGQPENNYKTTPPVLDSDGSFFLYSKLTVDKSRWQQGNVFSCSVLHEALHSHYTQKSLSLSPGK light: DIQMTQSPSSLSASVGDTVTITCQANGYLNWYQQRRGKAPKLLIYDGSKLERGVPSRFSGRRWGQEYNLTINNLQPEDIATYFCQVYEFVVPGTRLDLKRTVAAPSVFIFPPSDEQLKSGTASVVCLLNNFYPREAKVQWKVDNALQSGNSQESVTEQDSKDSTYSLSSTLTLSKADYEKHKVYACEVTHQGLSSPVTKSFNRGEC	0.92 A450	0.87 A450
1.17.1-1 (antibody, human IgG1, kappa) heavy: QVQLLQSGAAVTKPGASVRVSCEASGYNIRDYFIHWWRQAPGQGLQWVGWINPKAGQPNNPRQFQGRVSLTRHASWDFDTFSFYMDLKALRSDDTAVYFCARQRSDYWDFDVWGSGTQVTVSSASTKGPSVFPLAPSSKSTSGGTAALGCLVKDYFPEPVTVSWNSGALTSGVHTFPAVLQSSGLYSLSSVVTVPSSSLGTQTYICNVNHKPSNTKVDKKVEPKSCDKTHTCPPCPAPELLAGPDVFLFPPKPKDTLMISRTPEVTCVVVDVSHEDPEVKFNWYVDGVEVHNAKTKPREEQYNSTYRVVSVLTVLHQDWLNGKEYKCKVSNKALPLPEEKTISKAKGQPREPQVYTLPPSREEMTKNQVSLTCLVKGFYPSDIAVEWESNGQPENNYKTTPPVLDSDGSFFLYSKLTVDKSRWQQGNVFSCSVLHEALHSHYTQKSLSLSPGK light: DIQMTQSPSSLSASVGDTVTITCQANGYLNWYQQRRGKAPKLLIYDGSKLERGVPSRFSGRRWGQEYNLTINNLQPEDIATYFCQVYEFVVPGTRLDLKRTVAAPSVFIFPPSDEQLKSGTASVVCLLNNFYPREAKVQWKVDNALQSGNSQESVTEQDSKDSTYSLSSTLTLSKADYEKHKVYACEVTHQGLSSPVTKSFNRGEC	0.84 A450	0.7 A450
1.18.1-1 (antibody, human IgG1, kappa) heavy: QVQLLQSGAAVTKPGASVRVSCEASGYNIRDYFIHWWRQAPGQGLQWVGWINPKHGQPNNPRQFQGRVSLTRHASWDFDTFSFYMDLKALRSDDTAVYFCARQRSDYWDFDVWGSGTQVTVSSASTKGPSVFPLAPSSKSTSGGTAALGCLVKDYFPEPVTVSWNSGALTSGVHTFPAVLQSSGLYSLSSVVTVPSSSLGTQTYICNVNHKPSNTKVDKKVEPKSCDKTHTCPPCPAPELLAGPDVFLFPPKPKDTLMISRTPEVTCVVVDVSHEDPEVKFNWYVDGVEVHNAKTKPREEQYNSTYRVVSVLTVLHQDWLNGKEYKCKVSNKALPLPEEKTISKAKGQPREPQVYTLPPSREEMTKNQVSLTCLVKGFYPSDIAVEWESNGQPENNYKTTPPVLDSDGSFFLYSKLTVDKSRWQQGNVFSCSVLHEALHSHYTQKSLSLSPGK light: DIQMTQSPSSLSASVGDTVTITCQANGYLNWYQQRRGKAPKLLIYDGSKLERGVPSRFSGRRWGQEYNLTINNLQPEDIATYFCQVYEFVVPGTRLDLKRTVAAPSVFIFPPSDEQLKSGTASVVCLLNNFYPREAKVQWKVDNALQSGNSQESVTEQDSKDSTYSLSSTLTLSKADYEKHKVYACEVTHQGLSSPVTKSFNRGEC	0.97 A450	1.18 A450
1.19.1-1 (antibody, human IgG1, kappa) heavy: QVQLLQSGAAVTKPGASVRVSCEASGYNIRDYFIHWWRQAPGQGLQWVGWINPKTGQPNNPRQFQGRVTLTRHASWDFDTFSFYMDLKALRSDDTAVYFCARQRSDYWDFDVWGSGTQVTVSSASTKGPSVFPLAPSSKSTSGGTAALGCLVKDYFPEPVTVSWNSGALTSGVHTFPAVLQSSGLYSLSSVVTVPSSSLGTQTYICNVNHKPSNTKVDKKVEPKSCDKTHTCPPCPAPELLAGPDVFLFPPKPKDTLMISRTPEVTCVVVDVSHEDPEVKFNWYVDGVEVHNAKTKPREEQYNSTYRVVSVLTVLHQDWLNGKEYKCKVSNKALPLPEEKTISKAKGQPREPQVYTLPPSREEMTKNQVSLTCLVKGFYPSDIAVEWESNGQPENNYKTTPPVLDSDGSFFLYSKLTVDKSRWQQGNVFSCSVLHEALHSHYTQKSLSLSPGK light: DIQMTQSPSSLSASVGDTVTITCQANGYLNWYQQRRGKAPKLLIYDGSKLERGVPSRFSGRRWGQEYNLTINNLQPEDIATYFCQVYEFVVPGTRLDLKRTVAAPSVFIFPPSDEQLKSGTASVVCLLNNFYPREAKVQWKVDNALQSGNSQESVTEQDSKDSTYSLSSTLTLSKADYEKHKVYACEVTHQGLSSPVTKSFNRGEC	0.85 A450	0.93 A450
1.20.1-1 (antibody, human IgG1, kappa) heavy: QVQLLQSGAAVTKPGASVRVSCEASGYNIRDYFIHWWRQAPGQGLQWVGWINPKTGQPNNPRQFQGRVTMTRHASWDFDTFSFYMDLKALRSDDTAVYFCARQRSDYWDFDVWGSGTQVTVSSASTKGPSVFPLAPSSKSTSGGTAALGCLVKDYFPEPVTVSWNSGALTSGVHTFPAVLQSSGLYSLSSVVTVPSSSLGTQTYICNVNHKPSNTKVDKKVEPKSCDKTHTCPPCPAPELLAGPDVFLFPPKPKDTLMISRTPEVTCVVVDVSHEDPEVKFNWYVDGVEVHNAKTKPREEQYNSTYRVVSVLTVLHQDWLNGKEYKCKVSNKALPLPEEKTISKAKGQPREPQVYTLPPSREEMTKNQVSLTCLVKGFYPSDIAVEWESNGQPENNYKTTPPVLDSDGSFFLYSKLTVDKSRWQQGNVFSCSVLHEALHSHYTQKSLSLSPGK light: DIQMTQSPSSLSASVGDTVTITCQANGYLNWYQQRRGKAPKLLIYDGSKLERGVPSRFSGRRWGQEYNLTINNLQPEDIATYFCQVYEFVVPGTRLDLKRTVAAPSVFIFPPSDEQLKSGTASVVCLLNNFYPREAKVQWKVDNALQSGNSQESVTEQDSKDSTYSLSSTLTLSKADYEKHKVYACEVTHQGLSSPVTKSFNRGEC	0.89 A450	0.8 A450
